US20260159579A1 (Pfizer, published 2026)
Where “and” joins values, the source holds several entries; their conditions need not be identical. Equal entries are not always repeated.

T1: Mouse Fc-human GDF15 (Mu IgG1Fc_Fxa_Hu GDF15) (human)
T1 construct: Whole entry is the fusion: mouse IgG1 Fc, FXa site and linker, mature human GDF15; described as dimeric; also called Murine dimeric IgG1 Fc-human GDF-15 with FXa cleavage site; control human GDF15
T1 chain: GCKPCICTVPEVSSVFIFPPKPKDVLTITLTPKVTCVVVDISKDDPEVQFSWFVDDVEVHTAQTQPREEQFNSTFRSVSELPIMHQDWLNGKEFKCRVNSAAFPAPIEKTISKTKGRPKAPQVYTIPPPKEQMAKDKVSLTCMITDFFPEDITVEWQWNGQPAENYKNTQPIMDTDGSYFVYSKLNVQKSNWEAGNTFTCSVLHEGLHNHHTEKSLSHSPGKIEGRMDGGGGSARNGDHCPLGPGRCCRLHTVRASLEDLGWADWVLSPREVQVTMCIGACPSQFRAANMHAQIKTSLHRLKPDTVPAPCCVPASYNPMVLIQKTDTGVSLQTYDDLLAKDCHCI

B1: GDF15_014 (antibody, human IgG1, kappa, V domains shown)
VH: QVQLVQSGAEVKKPGSSVKVSCKASGYTFSSYNIDWVRQAPGQGLEWMGQINPINGLAFYNQKFQGRVTITADESTSTAYMELSSLRSEDTAVYYCAREAITTVGAMDYWGQGTLVTVSS
VL: EIVLTQSPATLSLSPGERATLSCRTSQNVHNYLAWYQQKPGQAPRLLIYDASNRATGIPARFSGSGSGTDFTLTISSLEPEDFAVYYCQQFWSDPYTFGQGTKVEIKR
notes: Tested in bivalent format
B2: GDF15_003 (antibody, human IgG1, kappa, V domains shown)
VH: QVQLVQSGAEVKKPGSSVKVSCKASGYTFTSYNIDWVRQAPGQGLEWMGQINPNNGLAFYNQKFQGRVTITADESTSTAYMELSSLRSEDTAVYYCAREQITTVGAMDYWGQGTLVTVSS
VL: EIVLTQSPATLSLSPGERATLSCRASQSLSSYLAWYQQKPGQAPRLLIYDAKNRADGIPARFSGSGSGTDFTLTISSLEPEDFAVYYCQQFSSDPYTFGQGTKVEIKR
notes: Tested in bivalent format
B3: GDF15_004 (antibody, human IgG1, kappa, V domains shown)
VH: QVQLVQSGAEVKKPGSSVKVSCKASGYTFSSYNIDWVRQAPGQGLEWMGQINPNNGLANYAQKFQGRVTITADESTSTAYMELSSLRSEDTAVYYCAREAITTIGAMDYWGQGTLVTVSS
VL: EIVLTQSPATLSLSPGERATLSCRTSESVHSYLAWYQQKPGQAPRLLIYDASTRADGIPARFSGSGSGTDFTLTISSLEPEDFAVYYCQQFWSDPYTFGQGTKVEIKR
notes: Tested in bivalent format
B4: GDF15_010 (antibody, human IgG1, kappa, V domains shown)
VH: QVQLVQSGAEVKKPGSSVKVSCKASGYTFSDYNIDWVRQAPGQGLEWMGGINPNNGLAFFNQKFQGRVTITADESTSTAYMELSSLRSEDTAVYYCAREAITTVGAMDYWGQGTLVTVSS
VL: EIVLTQSPATLSLSPGERATLSCRTSQSLHSYLAWYQQKPGQAPRLLIYDASNRATGIPARFSGSGSGTDFTLTISSLEPEDFAVYYCQQFWNDPWTFGQGTKVEIKR
notes: Tested in bivalent format
B5: GDF15_013 (antibody, human IgG1, kappa, V domains shown)
VH: QVQLVQSGAEVKKPGSSVKVSCKASGYTFSDYNMDWVRQAPGQGLEWMGGINPNNGLAFYNQKFQGRVTITADESTSTAYMELSSLRSEDTAVYYCAREAITTVGAMDYWGQGTLVTVSS
VL: EIVLTQSPATLSLSPGERATLSCRTSESVHSYLAWYQQKPGQAPRLLIYDASNRATGIPARFSGSGSGTDFTLTISSLEPEDFAVYYCQQFWNWPWTFGQGTKVEIKR
notes: Tested in bivalent format
B6: GDF15_015 (antibody, human IgG1, kappa, V domains shown)
VH: QVQLVQSGAEVKKPGSSVKVSCKASGYTFSDYNMDWVRQAPGQGLEWMGQINPNNGLAFYNQKFQGRVTITADESTSTAYMELSSLRSEDTAVYYCAREAITTVGATDYWGQGTLVTVSS
VL: EIVLTQSPATLSLSPGERATLSCRTSQNVHSYLAWYQQKPGQAPRLLIYDASNLADGIPARFSGSGSGTDFTLTISSLEPEDFAVYYCQQFSNDPWTFGQGTKVEIKR
notes: Tested in bivalent format
B7: GDF15_017 (antibody, human IgG1, kappa, V domains shown)
VH: QVQLVQSGAEVKKPGSSVKVSCKASGYTFTDYNIDWVRQAPGQGLEWMGQINPNNGLAFYNQKFQGRVTITADESTSTAYMELSSLRSEDNAVYYCAREAITTVGAMDYWGQGTLVTVSS
VL: EIVLTQSPATLSLSPGERATLSCRTSQSVHSYLAWYQQKPGQAPRLLIYDAKTRATGIPARFSGSGSGTDFTLTISSLEPEDFAVYYCQQFSSDPYTFGQGTKVEIKR
notes: Tested in bivalent format
B8: GDF15_020 (antibody, human IgG1, kappa, V domains shown)
VH: QVQLVQSGAEVKKPGSSVKVSCKASGYTFSDYNMDWVRQAPGQGLEWMGQINPNNGLANYNQKFQGRVTITADESTSTAYMELSSLRSEDTAVYYCAREAITTVGAMDYWGQGTLVTVSS
VL: EIVLTQSPATLSLSPGERATLSCRASQNLHSYLAWYQQKPGQAPRLLIYDASTRADGIPARFSGSGSGTDFTLTISSLEPEDFAVYYCQQFWSDPYTFGQGTKVEIKR
notes: Tested in bivalent format
B9: GDF15_021 (antibody, human IgG1, kappa, V domains shown)
VH: QVQLVQSGAEVKKPGSSVKVSCKASGYTFSSYNIDWVRQAPGQGLEWMGGINPINGLIFFNQKFQGRVTITADESTSTAYMELSSLRSEDTAVYYCAREAITTVGAMDHWGQGTLVTVSS
VL: EIVLTQSPATLSLSPGERATLSCRTSENVHSYLAWYQQKPGQAPRLLIYDASNLADGIPARFSGSGSGTDFTLTISSLEPEDFAVYYCQQFWSDPYTFGQGTKVEIKR
notes: Tested in bivalent format
B10: GDF15_022 (antibody, human IgG1, kappa, V domains shown)
VH: QVQLVQSGAEVKKPGSSVKVSCKASGYTFSDYNIDWVRQAPGQGLEWMGQINPNNGLIFFNQKFQGRVTITADESTSTAYMELSSLRSEDTAVYYCAREVITTVGAMDYWGQGTLVTVSS
VL: EIVLTQSPATLSLSPGERATLSCRTSQSVHSYLAWYQQKPGQAPRLLIYDAKTRADGIPARFSGSGSGTDFTLTISSLEPEDFAVYYCQQFSSDPYTFGQGTKVEIKR
notes: Tested in bivalent format
B11: GDF15_0297 (antibody, mouse IgG1, kappa, V domains shown)
VH: QVQLQQPGAELVKPGASVKMSCKASGYPFEGWYIHWVKQRPGQGLEWMGWNNPRTGLTNHAQKFQGKVTMTRDTSSSTAYMQLSSLTSEDSAVYYCARGVGADAAFDIWGQGTTLTVSS
VL: DIVMTQSPSSLSVSAGEKVTMSCRSSQSLLWKHGYNYLDWYQQKPGQPPKLLIYLDRNRAHGVPDRFTGSGSGTDFTLTISSVQAEDLAVYYCMQSFETPITFGGGTKLEIKR
notes: Tested in bivalent format; also called GDF15_297
B12: GDF15_0301 (antibody, mouse IgG1, kappa, V domains shown)
VH: QVQLQQPGAELVKPGASVKMSCKASGYPFEGWYIHWVKQRPGQGLEWMGWNNPRTGLTNHAQKFQGKATLTVDTSSSTAYMQLSSLTSEDSAVYYCARGVGADAAFDIWGQGTTLTVSS
VL: DIVLTQSPSSLSVSAGEKVTMSCRSSQSLLWKHGYNYLDWYQQKPGQPPKLLIYLDRNRAHGVPDRFTGSGSGTDFTLTISSVQAEDLAVYYCMQSFETPITFGGGTKLEIKR
notes: Tested in bivalent format; also called GDF15_301; mAB2
B13: GDF15_0470 (antibody, human IgG1, kappa, V domains shown)
VH: QVQLVQSGAEVKKPGASVKVSCKASGYPFEGWYIHWVRQAPGQGLEWMGWNNPRTGLTNHAQKFQGRVTMTRDTSISTAYMELSRLRSDDTAVYYCARGVGADAAFDIWGQGTMVTVSS
VL: EIVLTQSPATLSLSPGERATLSCRSSQSLLWKHGYNYLDWYQQKPGQAPRLLIYLDRNRAHGIPARFSGSGSGTDFTLTISSLEPEDFAVYYCMQSFETPITFGQGTKVEIKR
notes: Tested in bivalent format; also called GDF15-470

Experiments:
[1] = target: T1, Mouse Fc-human GDF15 (Mu IgG1Fc_Fxa_Hu …); test: SPR BIAcore T200, 37C; Fc-GDF15 captured, IgG as analyte
Experimental: (§1) Mouse Fc-human GDF15 (Mu IgG1Fc_Fxa_Hu GDF15; SEQ ID NO:2), Mouse Fc-mouse GDF15 (Mu IgG1Fc_Fxa_Mu GDF15; SEQ ID NO:5) and Mouse Fc-cynomolgus monkey GDF15 (Mu IgG1Fc_Fxa_Cyno GDF15; SEQ ID NO:4) were captured onto three different flow cells of a CM4 sensorchip (catalogue number BR100534, GE Healthcare) surface using the Mouse Antibody Capture Kit (BR100838, GE Healthcare) according to the manufacturer's protocol. The running and sample bufferwas 10 mM HEPES pH 7.4, 0.15M NaCl, 3 mM EDTA, 0.05% P-20 (HBS-EP+). The final capture levels of Mu IgG1Fc_Fxa_Hu GDF15, Mu IgG1Fc_Fxa_Mu GDF15 and Mu IgG1Fc_Fxa_Cyno GDF15 were 40 resonance units (RU), 32 RU and 25 RU respectively. Flow cell 1 was used as a reference flow cell. […] The dissociation was monitored for 2.8 hours and the surface was regenerated with 10 mM Glycine pH 1.7. Binding affinities and rate constants were determined for murine and cynomolgus monkey GDF15 by fitting the resulting sensorgram data to a 1:1 Langmuir model in BIAcore T200 Evaluation software version 2.0 (GE Healthcare).
(§2) Additionally, the binding of clone GDF15_001 to cynomolgus monkey and mouse GDF15 was measured using above mentioned BIAcore assay (Table 7).

[2] = target: T1, Mouse Fc-human GDF15 (Mu IgG1Fc_Fxa_Hu …); test: SPR BIAcore T200, 37C; Fc-GDF15 captured, IgG as analyte; average of runs
Experimental: as §1, §2

[3] = target: T1, Mouse Fc-human GDF15 (Mu IgG1Fc_Fxa_Hu …); test: SPR BIAcore T200; summary sentence for the clones of Table 6
Experimental: as §1, §2

Binder | Kd [1] | T½ min [1] | koff [1] | kon [1] | Kd [2] | koff [2] | kon [2] | Kd [3]
B1 | < 0.01 nM | 10.7 h and 13 h | 1.79e-05 s⁻¹ and 1.48e-05 s⁻¹ | 1.88e+06 M⁻¹ s⁻¹ and 1.9e+06 M⁻¹ s⁻¹ | < 0.01 nM | 1.64e-05 s⁻¹ | 1.89e+06 M⁻¹ s⁻¹ | 
B2 | 0.0274 nM and 0.0268 nM | 2.67 h and 2.1 h | 7.22e-05 s⁻¹ and 9.19e-05 s⁻¹ | 2.64e+06 M⁻¹ s⁻¹ and 3.43e+06 M⁻¹ s⁻¹ | 0.0271 nM | 8.2e-05 s⁻¹ | 3.03e+06 M⁻¹ s⁻¹ | 
B3 | 0.0322 nM and 0.0419 nM | 2.7 h and 2.35 h | 7.14e-05 s⁻¹ and 8.2e-05 s⁻¹ | 2.22e+06 M⁻¹ s⁻¹ and 1.96e+06 M⁻¹ s⁻¹ | 0.037 nM | 7.67e-05 s⁻¹ | 2.09e+06 M⁻¹ s⁻¹ | 
B4 | 0.0113 nM and 0.0201 nM | 13.1 h and 10.8 h | 1.47e-05 s⁻¹ and 1.78e-05 s⁻¹ | 1.31e+06 M⁻¹ s⁻¹ and 885000 M⁻¹ s⁻¹ | 0.0157 nM | 1.63e-05 s⁻¹ | 1.1e+06 M⁻¹ s⁻¹ | 
B5 | 0.0275 nM and 0.0103 nM | 2.89 h and 2.56 h | 6.66e-05 s⁻¹ and 7.51e-05 s⁻¹ |  | 0.018 nM | 7.08e-05 s⁻¹ | 4.86e+06 M⁻¹ s⁻¹ | 
B6 | 0.0594 nM and 0.0573 nM | 1.94 h and 1.86 h | 9.93e-05 s⁻¹ and 0.000104 s⁻¹ | 1.67e+06 M⁻¹ s⁻¹ and 1.81e+06 M⁻¹ s⁻¹ | 0.0584 nM | 0.000101 s⁻¹ | 1.74e+06 M⁻¹ s⁻¹ | 
B7 | 0.0267 nM and 0.043 nM | 2.35 h and 2.22 h | 8.18e-05 s⁻¹ and 8.66e-05 s⁻¹ | 1.9e+06 M⁻¹ s⁻¹ and 3.24e+06 M⁻¹ s⁻¹ | 0.0349 nM | 8.42e-05 s⁻¹ | 2.57e+06 M⁻¹ s⁻¹ | 
B8 | 0.0974 nM and 0.165 nM | 2.03 h and 1.7 h | 9.46e-05 s⁻¹ and 0.000113 s⁻¹ | 972000 M⁻¹ s⁻¹ and 686000 M⁻¹ s⁻¹ | 0.131 nM | 0.000104 s⁻¹ | 829000 M⁻¹ s⁻¹ | < 0.15 nM
B9 | 0.142 nM and 0.165 nM | 0.661 h and 0.547 h | 0.000291 s⁻¹ and 0.000352 s⁻¹ | 2.05e+06 M⁻¹ s⁻¹ and 2.14e+06 M⁻¹ s⁻¹ | 0.153 nM | 0.000322 s⁻¹ | 2.09e+06 M⁻¹ s⁻¹ | < 0.15 nM
B10 | 0.0132 nM and 0.0179 nM | 10.9 h and 13.3 h | 1.77e-05 s⁻¹ and 1.45e-05 s⁻¹ | 1.34e+06 M⁻¹ s⁻¹ and 813000 M⁻¹ s⁻¹ | 0.0156 nM | 1.61e-05 s⁻¹ | 1.08e+06 M⁻¹ s⁻¹ | < 0.15 nM
B11 | < 0.01 nM | 17.7 h and 14.9 h | 1.09e-05 s⁻¹ and 1.29e-05 s⁻¹ | 5.54e+06 M⁻¹ s⁻¹ and 5.5e+06 M⁻¹ s⁻¹ | < 0.01 nM | 1.19e-05 s⁻¹ | 5.52e+06 M⁻¹ s⁻¹ | < 0.15 nM
B12 | < 0.01 nM |  |  | 3.36e+06 M⁻¹ s⁻¹ and 5.58e+06 M⁻¹ s⁻¹ and 5.22e+06 M⁻¹ s⁻¹ | < 0.01 nM | 6.97e-06 s⁻¹ | 4.72e+06 M⁻¹ s⁻¹ | < 0.15 nM
B13 | < 0.01 nM | 3.7 h and 4.47 h | 5.21e-05 s⁻¹ and 4.3e-05 s⁻¹ | 1.2e+07 M⁻¹ s⁻¹ and 1.3e+07 M⁻¹ s⁻¹ | < 0.01 nM | 4.76e-05 s⁻¹ | 1.25e+07 M⁻¹ s⁻¹ | < 0.15 nM
